Here are results for 1 molecule from patent US20240307564A1 (SUZHOU TRANSCENTA THERAPEUTICS, published 2024).

A value given as a limit tells only on which side of the number the result lay.

Assay [1] concerns the target T1, human CLDN18.2 (human).
T1 construct: On HEK293-CLDN18.2 and MKN45-CLDN18.2 transfected cells and on the gastric cell lines NUGC4 and KATOIII (endogenous); also called Claudin18.2; claudin 18 splice variant 2
Put plainly: KinExA on gastric cell lines. On the technique in general: A kinetic exclusion assay measures how much of one partner remains free in solution.

For assay [2], the target named is T1, human CLDN18.2. The assay can be described thus: cell-based or functional assay.

B1: 18B10-HaLa (antibody, human IgG1, kappa, V domains shown)
VH: QVQLVQSGAEVKKPGASVKVSCKASGYTFTGYNMNWVRQAPGQGLEWMGNIDPYYGGTSYNQKFKGRVTMTIDKSTSTVYMELSSLRSEDTAVYYCARMYHGNAFDYWGQGTTVTVSS
VL: DIVMTQSPDSLAVSLGERATINCKSSQSLLNSGNLKNYLTWYQQKPGQPPKLLIYWASTRKSGVPDRFSGSGSGTDFTLTISSLQAEDVAVYYCQNDYSYPLTFGGGTKVEIKR
notes: humanized; variable regions fused with human IgG1 and human kappa constant regions; also called humanized 18B10 HaLa
Turning to B1, in the assay with human CLDN18.2 [1], the “fold higher affinity than IMAB362” value was greater than 8 fold. Moreover, in the assay with human CLDN18.2 [2], the “ADCC EC50 on NUGC4 cells” value was roughly 0.59 µg/mL, the “ADCC reporter EC50” value stood at 0.05 µg/mL and the CDC activity was greater than 20 fold.
